From paper PMC12399645 (Frontiers in Immunology, 2025)

biological target: SARS-CoV-2 spike trimer protein, Wild-type (SARS-CoV-2, original Wild-type …, UniProt P0DTC2, biotin on the Avi-tag (BirA ligase)); experiment: ELISA; conditions: both partners purified

Row | Binder | binding result
1 | KBA2401 (antibody, V domains shown, copies: 2 + 2) VH: EVQLVQSGAEVKKPGESLKISCKGSGYTFSYFWIGWVRQMPGKGLEWMGIIYPGDSDTRYSPSFQGQVTISADKSISTAYLQWSSLKASDTAMYYCARVGIEMATTYFGFWGQGTMVTVSS VL: SYVLTQPPSVSVAPGQTARITCGGNNIGSKSVHWYQQRPGQAPVLVVYDDSDRPSEIPERFSGSSSGNTATLTISTVEAGDEADYYCQVWDSSTDHPGVFGGGTKLTVL | binds
2 | KBA2403 (antibody, V domains shown, IgG1 format; copies: 2 + 2) VH: EVQLVESGGGLVQPGGSLRLSCVASGIIVSRNYMNWVRQAPGKGLEWVSVLYSGGTTEYADSVKGRFTISRDNSKNTLFLQMSSLRVEDTAVYFCAREGYGMDVWGQGATVTVSS VL: DIQLTQSPSFLSASVGDRVTITCRAGQGISTYLAWYQQKPGKAPKLLIYSASTLQSGVPSRFSGSGSGTEFTLTISSLQPEDFATYYCQQLNNYPPAFGGGTKVEIK | binds
3 | KBA2404 (antibody, V domains shown, IgG1 format; copies: 2 + 2) VH: EVQLVESGGGLVQPGGSLRLSCAASGFTVSSNYMSWVRQAPGKGLECVSVIYSGGSTYYGDSVKGRFTISRDNSKNRLYLQMHSLRAEDTAVYFCARIVSDAFDIWGQGTMVTVSS VL: DIQMTSLLSPLSASVGDRVTITCRASQNINRWLAWYQQKPGKAPKLLIYMASNLESGVPSRFSGSGSGTEFSLTISSLQPDDLATYYCQQYNSYWTSYTFGQGTKLEIK | binds
4 | KBA2402 (antibody, V domains shown, copies: 2 + 2) VH: EVQLVESGGGLVQPGRSLGLSCTTSGFTFGDFAMSWFRQAPGKGLEWVGFIRSKAYGGATQYAASVKGRFTISRDDSKSIAYLQMNSLKTEDTAVYYCTRAGEMATTVNRQFDYWGQGTLVTVSS VL: not shown | binds

same assay, conditions: one partner purified

Row | Binder | binding result
5 | KBA2402_EVO17 (antibody, V domains shown, copies: 2 + 2) VH: EVQLVESGGGLVQPGRSLGLSCTTSGFTFGDFAMSWFRQAPGKGLEWVGFIRSKAYGGATQYAASVKGRFTISRDDSKSIAYLQMNSLKTEDTAVYYCTRAGEMATTVNRQFDYWGQGTLVTVSS VL: not shown | binds
6 | KBA2402_EVO14 (antibody, V domains shown, copies: 2 + 2) VH: EVQLVESGGGLVQPGRSLGLSCTTSGFTFGDFAMSWFRQAPGKGLEWVGFIRSKAYGGATQYAASVKGRFTISRDDSKSIAYLQMNSLKTEDTAVYYCTRAGEMATTVNRQFDYWGQGTLVTVSS VL: not shown | binds
